The source of these data is publication PMC10816697.

Assay [1] deals with Skeletal muscle actin (rabbit) (UniProt P68135).
The target of assay [2] is Arp2/3 complex purified from sheep brain (sheep).
Assay [3] has the same target. Kind of assay: TIRF microscopy of single actin filaments in microfluidics; branch dissociation rate against GMF concentration (up to 1500 nM), 0.3 μM G-actin, branches aged 30 min (ADP-Arp2/3 complex), average 1 pN pulling force; Michaelis-Menten fit, rapid equilibrium between GMF and the branch junction assumed; apparent dissociation constant; 25°C, pH 7.0, 50 mM KCl.

On to “Arp2/3 complex from Saccharomyces cerevisiae (from UniProt P32381 1-391; P47117 1-449)”, for which the branch renucleation ratio of branches made with budding yeast Arp2/3 complex on mammalian actin in assay [1] is < 10%.

B1: drosophila GMF (glia maturation factor) (natural protein)
chain: MSDNQICDISNEVLEELKKFRFSKSKNNAALILKVDREKQTVVLDEFIDDISVDELQDTLPGHQPRYVIYTYKMVHDDQRISYPMCFIFYTPRDSQIELQMMYACTKSALQREVDLTRVYEIRELDELTEEWLKAKLK
As for B1, the branch renucleation ratio against GMF concentration (0.3 and 0.6 μM actin): GMF concentration of the half-maximum effect; with 25 nM GMF and 0.6 μM actin the ratio was reduced more than threefold in assay [2] is < 25 nM. Further, the Kd in assay [3] came out at 0.26 µM.
